Measured values reported in publication PMC8219891.

B1: Junction-DPC (substrate e) (mixed)
DNA 1: CCCAAAAAAAAAAATAAAAAAAAAAAACCC
DNA 2: GGGTTTTTTTTTTTT
modifications: dT15 of strand 1 covalently conjugated to protein G; strand 1 3'-phosphate
B2: dsDPC (substrate f) (dsDNA)
DNA 1: B1 DNA 1
DNA 2: GGGTTTTTTTTTTTTATTTTTTTTTTTGGG
modifications: dT15 of strand 1 covalently conjugated to protein G; strand 1 3'-phosphate

Target: T1, SPRTN-EQ (catalytically inactive) (UniProt Q9H040 1-489, E112Q)
T1 sequence: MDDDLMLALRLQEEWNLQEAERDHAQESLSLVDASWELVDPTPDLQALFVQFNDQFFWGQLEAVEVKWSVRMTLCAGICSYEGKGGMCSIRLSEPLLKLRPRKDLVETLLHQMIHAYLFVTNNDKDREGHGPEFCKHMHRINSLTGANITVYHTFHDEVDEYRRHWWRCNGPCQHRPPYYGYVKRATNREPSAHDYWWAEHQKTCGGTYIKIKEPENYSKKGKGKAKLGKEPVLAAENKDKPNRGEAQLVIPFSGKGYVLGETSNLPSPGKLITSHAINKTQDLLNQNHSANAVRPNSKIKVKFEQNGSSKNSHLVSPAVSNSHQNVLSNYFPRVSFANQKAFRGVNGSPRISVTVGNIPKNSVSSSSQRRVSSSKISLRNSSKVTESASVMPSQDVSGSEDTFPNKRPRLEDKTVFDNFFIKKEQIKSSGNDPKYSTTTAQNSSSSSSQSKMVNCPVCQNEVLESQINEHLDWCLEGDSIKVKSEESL
Assay: EMSA

Binder	binding result
B1	binds
B2	binds
